From publication PMC9482650, “Quantitative fragmentomics allow affinity mapping of interactomes” (Nature Communications, 2022)

Tests used:
Experiment in all cases: holdup assay
Conditions in all cases: plain residues with an end cap or a label only (N-terminal biotin on a linker: (peg)3)
AHNAK2, Q8IVF2 = molecular target: AHNAK2, Q8IVF2
CARD14, Q9BXL6 = molecular target: CARD14, Q9BXL6
CNKSR1, Q969H4 = molecular target: T1, CNKSR1, Q969H4
T1 sequence (Q969H4 191-295, limits assumed, looked up): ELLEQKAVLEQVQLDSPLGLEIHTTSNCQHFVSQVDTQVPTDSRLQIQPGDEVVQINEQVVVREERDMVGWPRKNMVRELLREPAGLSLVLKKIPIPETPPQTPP

DVL1, O14640 = molecular target: T2, DVL1, O14640
T2 sequence (O14640 246-333, limits assumed, looked up): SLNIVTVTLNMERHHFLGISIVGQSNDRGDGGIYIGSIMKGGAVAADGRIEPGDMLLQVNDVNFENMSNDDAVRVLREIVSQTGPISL

DVL2, O14641 = molecular target: DVL2, O14641
Chain of DVL2, O14641 (O14641 260-359): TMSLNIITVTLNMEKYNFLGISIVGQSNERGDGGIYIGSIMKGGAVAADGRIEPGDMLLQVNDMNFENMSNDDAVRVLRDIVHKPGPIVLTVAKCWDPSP

GRIP1_1, Q9Y3R0 = molecular target: T3, GRIP1_1, Q9Y3R0
T3 sequence (Q9Y3R0 48-146, limits assumed, looked up): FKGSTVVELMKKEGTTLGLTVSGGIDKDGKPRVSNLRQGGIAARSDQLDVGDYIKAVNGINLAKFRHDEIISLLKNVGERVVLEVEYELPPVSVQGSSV

MAGI1_6, Q96QZ7 = molecular target: MAGI1_6, Q96QZ7
Chain of MAGI1_6, Q96QZ7 (Q96QZ7 1146-1238): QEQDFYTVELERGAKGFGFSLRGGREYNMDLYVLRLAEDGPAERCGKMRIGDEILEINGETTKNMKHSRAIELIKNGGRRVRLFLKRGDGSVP

MAGI2_1, Q86UL8 = molecular target: T4, MAGI2_1, Q86UL8
T4 sequence (Q86UL8 12-111, limits assumed, looked up): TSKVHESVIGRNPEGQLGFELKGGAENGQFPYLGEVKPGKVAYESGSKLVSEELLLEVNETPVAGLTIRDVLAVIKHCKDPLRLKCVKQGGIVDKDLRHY

MAGI3_3, Q5TCQ9 = molecular target: MAGI3_3, Q5TCQ9
Chain of MAGI3_3, Q5TCQ9 (Q5TCQ9 572-655): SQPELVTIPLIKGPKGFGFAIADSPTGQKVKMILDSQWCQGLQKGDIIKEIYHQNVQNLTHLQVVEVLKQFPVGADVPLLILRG

MAST3, O60307 = molecular target: MAST3, O60307
Chain of MAST3, O60307 (O60307 945-1048): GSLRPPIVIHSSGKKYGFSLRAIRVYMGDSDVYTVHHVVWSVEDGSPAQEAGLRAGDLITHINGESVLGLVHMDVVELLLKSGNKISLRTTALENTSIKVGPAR

NHERF2_1, Q15599 = molecular target: NHERF2_1, Q15599
Chain of NHERF2_1, Q15599 (Q15599 9-91): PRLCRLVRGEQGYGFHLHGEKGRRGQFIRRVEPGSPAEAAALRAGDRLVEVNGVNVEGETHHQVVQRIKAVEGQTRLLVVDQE

PARD3B_2, Q8TEW8 = molecular target: PARD3B_2, Q8TEW8
Chain of PARD3B_2, Q8TEW8 (Q8TEW8 376-471): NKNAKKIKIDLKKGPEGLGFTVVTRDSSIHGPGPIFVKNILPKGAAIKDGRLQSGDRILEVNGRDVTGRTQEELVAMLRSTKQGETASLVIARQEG

PDLIM4, P50479 = molecular target: PDLIM4, P50479
Chain of PDLIM4, P50479 (P50479 1-83): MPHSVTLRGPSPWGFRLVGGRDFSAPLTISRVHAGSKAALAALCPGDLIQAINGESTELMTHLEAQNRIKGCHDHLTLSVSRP

PDZD11, Q5EBL8 = molecular target: T5, PDZD11, Q5EBL8
T5 sequence (Q5EBL8 42-139, limits assumed, looked up): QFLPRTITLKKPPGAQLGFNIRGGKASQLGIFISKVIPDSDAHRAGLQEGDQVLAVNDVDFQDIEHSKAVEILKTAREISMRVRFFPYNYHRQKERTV

PDZD7_1, Q9H5P4 = molecular target: T6, PDZD7_1, Q9H5P4
T6 sequence (Q9H5P4 81-178, limits assumed, looked up): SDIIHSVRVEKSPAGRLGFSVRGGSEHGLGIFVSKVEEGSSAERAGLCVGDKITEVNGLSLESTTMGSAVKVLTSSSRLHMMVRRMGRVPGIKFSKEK

PDZD7_2, Q9H5P4 = molecular target: T7, PDZD7_2, Q9H5P4
T7 sequence (Q9H5P4 205-303, limits assumed, looked up): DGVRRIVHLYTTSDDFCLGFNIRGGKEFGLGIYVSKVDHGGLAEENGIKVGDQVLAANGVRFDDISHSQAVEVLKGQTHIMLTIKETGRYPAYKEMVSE

PDZRN4_2, Q6ZMN7 = molecular target: PDZRN4_2, Q6ZMN7
Chain of PDZRN4_2, Q6ZMN7 (Q6ZMN7 389-498): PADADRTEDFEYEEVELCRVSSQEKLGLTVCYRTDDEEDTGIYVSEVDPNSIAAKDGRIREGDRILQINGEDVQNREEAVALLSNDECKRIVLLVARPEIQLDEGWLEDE

RIMS1, Q86UR5 = molecular target: RIMS1, Q86UR5
Chain of RIMS1, Q86UR5 (Q86UR5 584-692): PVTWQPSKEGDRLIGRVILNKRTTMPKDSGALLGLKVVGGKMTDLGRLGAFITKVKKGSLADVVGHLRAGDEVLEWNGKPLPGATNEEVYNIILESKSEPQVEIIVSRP

RIMS2, Q9UQ26 = molecular target: RIMS2, Q9UQ26
Chain of RIMS2, Q9UQ26 (Q9UQ26 637-758): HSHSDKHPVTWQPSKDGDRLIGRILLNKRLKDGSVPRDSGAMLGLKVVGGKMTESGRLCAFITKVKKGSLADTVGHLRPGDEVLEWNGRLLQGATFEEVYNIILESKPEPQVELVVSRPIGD

SCRIB_4, Q14160 = molecular target: SCRIB_4, Q14160
Chain of SCRIB_4, Q14160 (Q14160 1095-1204): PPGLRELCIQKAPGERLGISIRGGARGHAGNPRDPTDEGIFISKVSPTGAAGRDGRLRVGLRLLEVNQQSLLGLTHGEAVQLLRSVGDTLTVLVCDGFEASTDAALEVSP

SHANK2, Q9UPX8 = molecular target: T8, SHANK2, Q9UPX8
T8 sequence (Q9UPX8 621-730, limits assumed, looked up): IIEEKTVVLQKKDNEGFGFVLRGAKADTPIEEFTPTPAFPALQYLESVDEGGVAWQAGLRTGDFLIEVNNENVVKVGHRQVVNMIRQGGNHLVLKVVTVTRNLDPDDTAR

SHROOM2, Q13796 = molecular target: T9, SHROOM2, Q13796
T9 sequence (Q13796 21-118, limits assumed, looked up): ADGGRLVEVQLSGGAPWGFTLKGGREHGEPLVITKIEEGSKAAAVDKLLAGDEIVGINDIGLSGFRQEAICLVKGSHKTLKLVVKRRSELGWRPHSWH

SHROOM3, Q8TF72 = molecular target: T10, SHROOM3, Q8TF72
T10 sequence (Q8TF72 20-120, limits assumed, looked up): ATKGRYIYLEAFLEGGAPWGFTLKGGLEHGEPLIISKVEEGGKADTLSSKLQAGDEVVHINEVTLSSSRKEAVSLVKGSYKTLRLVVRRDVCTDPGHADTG

SHROOM4, Q9ULL8 = molecular target: T11, SHROOM4, Q9ULL8
T11 sequence (Q9ULL8 5-102, limits assumed, looked up): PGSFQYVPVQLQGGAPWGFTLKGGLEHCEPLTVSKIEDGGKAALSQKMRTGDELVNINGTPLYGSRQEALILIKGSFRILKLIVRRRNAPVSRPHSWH

SIPA1L3, O60292 = molecular target: T12, SIPA1L3, O60292
T12 sequence (O60292 961-1052, limits assumed, looked up): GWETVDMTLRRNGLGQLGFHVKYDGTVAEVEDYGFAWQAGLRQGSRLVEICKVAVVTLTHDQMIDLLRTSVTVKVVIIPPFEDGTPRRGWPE

TJP1_1, Q07157 = molecular target: TJP1_1, Q07157
Chain of TJP1_1, Q07157 (Q07157 18-120): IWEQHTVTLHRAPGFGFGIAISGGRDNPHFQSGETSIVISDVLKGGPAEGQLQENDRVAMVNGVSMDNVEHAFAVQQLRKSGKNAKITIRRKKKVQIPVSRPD

Measured: pKd

Chain of CARD14, Q9BXL6 (Q9BXL6 558-663): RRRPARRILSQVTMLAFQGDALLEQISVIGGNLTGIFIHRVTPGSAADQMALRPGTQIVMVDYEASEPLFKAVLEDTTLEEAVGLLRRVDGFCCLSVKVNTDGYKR
Chain of AHNAK2, Q8IVF2 (Q8IVF2 108-193): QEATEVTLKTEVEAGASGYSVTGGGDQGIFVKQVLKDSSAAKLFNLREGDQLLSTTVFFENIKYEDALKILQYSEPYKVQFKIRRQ

B1: SARS-CoV-E, P59637 (peptide)
chain: NLNSSEGVPDLLV
4.05: PDZRN4_2, Q6ZMN7
3.85: MAGI3_3, Q5TCQ9
below the threshold: all other assays above
